Experimental data reported in patent EP4596580A1 (Staidson (Beijing) Biopharmaceuticals Co., Ltd., dated 2025).
Where a chain is given by its changes, count along the chain named. Read-outs that look alike come from different tables or passages of the source.

T1: His-human LIGHT (human)
T1 chain: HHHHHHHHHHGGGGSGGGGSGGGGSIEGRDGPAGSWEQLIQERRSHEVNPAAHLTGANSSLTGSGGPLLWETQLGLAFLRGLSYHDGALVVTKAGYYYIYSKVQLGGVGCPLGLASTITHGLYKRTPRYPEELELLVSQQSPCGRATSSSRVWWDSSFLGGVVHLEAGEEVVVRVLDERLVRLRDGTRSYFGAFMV

T2: His-cynomolgus monkey LIGHT (cynomolgus monkey)
T2 construct: also called His-cynoLIGHT
T2 chain: T1 chain with P32H, A33G, E47Q, V48N, S83D, V91A, T92N, S149N, A167V

T3: His-mouse LIGHT (mouse)
T3 construct: also called His-musLIGHT
T3 chain: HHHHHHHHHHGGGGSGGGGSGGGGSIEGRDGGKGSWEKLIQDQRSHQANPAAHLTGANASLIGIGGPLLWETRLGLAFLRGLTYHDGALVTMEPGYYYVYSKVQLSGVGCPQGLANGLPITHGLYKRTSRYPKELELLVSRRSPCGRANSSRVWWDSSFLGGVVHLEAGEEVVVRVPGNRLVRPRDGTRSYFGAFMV

B1: hum_LT-m37-14 (antibody, human IgG4, V domains shown)
VH: QVQLVQSGAEVKKPGASVKVSCKASGYSFTGYFINWVRQAPGQSLEWIGRIYPYNVDTFYNQNFKGRATLTADKSTSTAYMELSSLRSEDTAVYYCGRGTHYYGSSGAMDYWGQGTLVTVSS
VL: EIVLTQSPATLSVSPGERATLSCKASQNVGTAVAWYQQKPGQSPRLLIYSASNRYTGIPARFSGSGSGTEFTLTISSLQSEDFAVYYCQQYSSYPYTFGGGTKVEIK
notes: humanized from LT-m37
B2: hum_LT-m37-15 (antibody, human IgG4, V domains shown)
VH: B1 VH with S44G, L70M
VL: B1 VL
notes: humanized from LT-m37
B3: hum_LT-m37-16 (antibody, human IgG4, V domains shown)
VH: B1 VH with S44G, A68V, L70M
VL: B1 VL
notes: humanized from LT-m37
B4: hum_LT-m58-1 (antibody, human IgG4, V domains shown)
VH: QVQLVQSGAEVKKPGASVKVSCKASGYTFIDHIMNWVRKAPGQGLEWMGRIYPVSGETNYNQKFMGRATFTVDRSTSTVYMELSSLRSEDTAVYYCGRGSYYWNAMDYWGQGTLVTVSS
VL: EIVMTQSPATLSVSPGERATLSCKASQSVDFDGDSYMNWYQQKPGQPPRLLIYSASNLESGIPARFSGSGSGTEFTLTISSLQSEDFAVYYCQQSIEDPWTFGQGTKLEIK
notes: humanized from LT-m58
B5: hum_LT-m85-3 (antibody, human IgG4, V domains shown)
VH: QVQLVQSGAEVKKPGASVKVSCKASGYTFTSYNVHWVRQAPGQGLEWIGAVYPGNGDTSYNQKFKGRATLTADKSTSTVYMELSSLRSEDTAVYYCARGSYYYTSSYFDHWGQGTLVTVSS
VL: B4 VL with S54T, I96Y, W100F
notes: humanized from LT-m85
B6: hum_LT-m58-2 (antibody, human IgG4, V domains shown)
VH: B4 VH with M48I, A68V
VL: B4 VL with P47A, L108V
notes: humanized from LT-m58
B7: hum_LT-m85-4 (antibody, human IgG4, V domains shown)
VH: B5 VH with V79A
VL: B4 VL with P47A, S54T, I96Y, W100F
notes: humanized from LT-m85
B8: hum_LT-m85-1 (antibody, human IgG4, V domains shown)
VH: B5 VH
VL: B4 VL with M4L, S54T, I96Y, W100F
notes: humanized from LT-m85
B9: hum_LT-m58-5 (antibody, human IgG4, V domains shown)
VH: B4 VH with M48I, A68V
VL: B4 VL with D34E, P47A, L108V
notes: humanized from LT-m58
B10: hum_LT-m85-2 (antibody, human IgG4, V domains shown)
VH: B5 VH with I48M, V79A
VL: B4 VL with S54T, I96Y, W100F
notes: humanized from LT-m85
B11: hum_LT-m58-6 (antibody, human IgG4, V domains shown)
VH: B4 VH
VL: DIVMTQSPDSLAVSLGERATINCKASQSVDFDGESYMNWYQQKPGQPPKLLIYSASNLESGVPDRFSGSGSGTDFTLTISSLQAEDVAVYYCQQSIEDPWTFGQGTKVEIK
notes: humanized from LT-m58
B12: LT-m31 (antibody, human IgG4, V domains shown)
VH: QIQLLQSGPELEKPGETVKISCKASGYTFTNYGMNWVKQAPGKGLKWMGWINTYTGEPTYADDFKGRFAFSLETSASTAYLQINNLKNEDTATYFCARDNWDGKGMDYWGQGTSVTVSS
VL: DIVLTQSPKFMSTSVGDRVSITCKASQDVDTAVAWYQQKPGHSPKLLLYWASTRHTGVPDRFTGSGSGTDFTLTISNVQSEDLADYFCHQYGSYPLTFGAGTKLELK

How the values were obtained:
hFc-human LIGHT [1] = target: T4, hFc-human LIGHT (human); assay: competition ELISA, LTβR-His coated, hFc-huLIGHT added
T4 construct: also called hFc-huLIGHT

His-human LIGHT [2] = target: T1, His-human LIGHT; assay: cell-based or functional assay
His-human LIGHT [3] = target: T1, His-human LIGHT; assay: cell-based or functional assay
His-human LIGHT [4] = target: T1, His-human LIGHT; assay: cell-based or functional assay
[5] = target: T2, His-cynomolgus monkey LIGHT; assay: ELISA, His-cynoLIGHT coated
[6] = target: T5, LIGHT on the surface of HEK293-LIGHT stable cells (human, UniProt O43557 1-240); assay: cell-based or functional assay
His-human LIGHT [7] = target: T1, His-human LIGHT; assay: cell-based or functional assay
His-human LIGHT [8] = target: T1, His-human LIGHT; assay: ELISA, His-huLIGHT coated
His-human LIGHT [9] = target: T1, His-human LIGHT; assay: cell-based or functional assay
His-human LIGHT [10] = target: T1, His-human LIGHT; assay: cell-based or functional assay
[11] = target: T5, LIGHT on the surface of HEK293-LIGHT …; assay: cell-based or functional assay; remark: listed apart in the source
His-human LIGHT [12] = target: T1, His-human LIGHT; assay: ELISA, His-huLIGHT coated
hFc-human LIGHT [13] = target: T4, hFc-human LIGHT; assay: competition ELISA, LTβR-His coated, hFc-huLIGHT added; remark: listed apart in the source
[14] = target: T2, His-cynomolgus monkey LIGHT; assay: ELISA, His-cynoLIGHT coated
His-human LIGHT [15] = target: T1, His-human LIGHT; assay: ELISA, His-huLIGHT coated
His-human LIGHT [16] = target: T1, His-human LIGHT; assay: cell-based or functional assay
His-mouse LIGHT = target: T3, His-mouse LIGHT; assay: ELISA, His-musLIGHT coated
hFc-human LIGHT [17] = target: T4, hFc-human LIGHT; assay: competition ELISA, LTβR-His coated, hFc-huLIGHT added; remark: listed apart in the source
[18] = target: T5, LIGHT on the surface of HEK293-LIGHT …; assay: cell-based or functional assay; remark: listed apart in the source
His-human LIGHT [19] = target: T1, His-human LIGHT; assay: cell-based or functional assay
[20] = target: T2, His-cynomolgus monkey LIGHT; assay: ELISA, His-cynoLIGHT coated
[21] = target: T2, His-cynomolgus monkey LIGHT; assay: ELISA, His-cynoLIGHT coated
His-human LIGHT [22] = target: T1, His-human LIGHT; assay: ELISA, His-huLIGHT coated
His-human LIGHT [23] = target: T1, His-human LIGHT; assay: SPR, Biacore 8K, antibody on CM5 chip
His-human LIGHT [24] = target: T1, His-human LIGHT; assay: cell-based or functional assay

Binder | EC50 (His-human LIGHT [12]) | IC50 (hFc-human LIGHT [13]) | EC50 [14] | EC50 (His-human LIGHT [15]) | IC50, LTβR NF-κB luciferase reporter, free LIGHT (His-human LIGHT [16]) | binding result (His-mouse LIGHT) | IC50 (hFc-human LIGHT [17]) | IC50, LTβR NF-κB luciferase reporter, HEK293-LIGHT cells [18] | IC50, HVEM NF-κB luciferase reporter, free LIGHT (His-human LIGHT [19]) | also measured
B1 | – | – | – | – | – | – | – | – | – | IC50 (hFc-human LIGHT [1]): 1020 pM; IC50, HVEM NF-κB luciferase reporter, free LIGHT (His-human LIGHT [2]): 161 pM; IC50, proliferation of CD3+ T cells stimulated by plate-bound anti-CD3 and His-huLIGHT (CellTiter Glo) (His-human LIGHT [3]): 0.332 µg/mL; IC50, LIGHT induced MMP-9 production in BEAS-2B bronchial epithelial cells (His-human LIGHT [4]): 0.352 µg/mL; EC50 [5]: 104 pM; IC50, LTβR NF-κB luciferase reporter, HEK293-LIGHT cells [6]: 1860 pM; IC50, LTβR NF-κB luciferase reporter, free LIGHT (His-human LIGHT [7]): 182 pM; EC50 (His-human LIGHT [8]): 46.4 pM
B2 | – | – | – | – | – | – | – | – | – | IC50 (hFc-human LIGHT [1]): 844 pM; IC50, HVEM NF-κB luciferase reporter, free LIGHT (His-human LIGHT [2]): 120 pM; IC50, proliferation of CD3+ T cells stimulated by plate-bound anti-CD3 and His-huLIGHT (CellTiter Glo) (His-human LIGHT [3]): 0.195 µg/mL; IC50, LIGHT induced MMP-9 production in BEAS-2B bronchial epithelial cells (His-human LIGHT [4]): 0.197 µg/mL; EC50 [5]: 130 pM; IC50, LTβR NF-κB luciferase reporter, HEK293-LIGHT cells [6]: 1280 pM; IC50, LTβR NF-κB luciferase reporter, free LIGHT (His-human LIGHT [7]): 219 pM; EC50 (His-human LIGHT [8]): 65.8 pM
B3 | – | – | – | – | – | – | – | – | – | IC50 (hFc-human LIGHT [1]): 808 pM; IC50, HVEM NF-κB luciferase reporter, free LIGHT (His-human LIGHT [2]): 179 pM; IC50, proliferation of CD3+ T cells stimulated by plate-bound anti-CD3 and His-huLIGHT (CellTiter Glo) (His-human LIGHT [3]): 0.385 µg/mL; IC50, LIGHT induced MMP-9 production in BEAS-2B bronchial epithelial cells (His-human LIGHT [4]): 0.305 µg/mL; EC50 [5]: 104 pM; IC50, LTβR NF-κB luciferase reporter, HEK293-LIGHT cells [6]: 2550 pM; IC50, LTβR NF-κB luciferase reporter, free LIGHT (His-human LIGHT [7]): 158 pM; EC50 (His-human LIGHT [8]): 36.9 pM
B4 | 14.1 pM | 291 pM | – | – | – | – | – | – | – | IC50, LTβR NF-κB luciferase reporter, free LIGHT (His-human LIGHT [9]): 183 pM; IC50, HVEM NF-κB luciferase reporter, free LIGHT (His-human LIGHT [10]): 93.3 pM; IC50, LTβR NF-κB luciferase reporter, HEK293-LIGHT cells [11]: 8060 pM
B5 | – | – | 15.5 pM | 8.69 pM | 159 pM | no binding | 282 pM | 4680 pM | 564 pM | –
B6 | 15.4 pM | 258 pM | – | – | – | – | – | – | – | IC50, LTβR NF-κB luciferase reporter, free LIGHT (His-human LIGHT [9]): 135 pM; IC50, HVEM NF-κB luciferase reporter, free LIGHT (His-human LIGHT [10]): 199 pM; IC50, LTβR NF-κB luciferase reporter, HEK293-LIGHT cells [11]: 5910 pM
B7 | – | – | 3.3 pM | 12.7 pM | 252 pM | no binding | 308 pM | 2560 pM | 454 pM | –
B8 | – | – | 8.9 pM | 12.3 pM | 649 pM | no binding | 274 pM | 4240 pM | 330 pM | –
B9 | 30.5 pM | 746 pM | – | – | – | no binding | – | – | – | EC50 [20]: 4.43 pM
B10 | – | – | 14.2 pM | 13.1 pM | 61.3 pM | no binding | 265 pM | 6020 pM | 209 pM | –
B11 | 34.9 pM | 628 pM | – | – | – | no binding | – | – | – | EC50 [20]: 2.58 pM
B12 | – | – | – | – | – | – | – | – | – | binding result [21]: binds; EC50 (His-human LIGHT [22]): 0.0256 µg/mL; Kd (His-human LIGHT [23]): 39.5 pM; koff (His-human LIGHT [23]): 4.03e-05 s⁻¹; kon (His-human LIGHT [23]): 1.02e+06 M⁻¹ s⁻¹; IC50, HVEM NF-κB luciferase reporter (293T-HVEM-NF-κB-Luc), free LIGHT (His-human LIGHT [24]): 0.105 µg/mL
